Consider four molecules from patent US20140120109A1 (Regeneron, published 2014).

Numbering of substitutions follows the chain as printed. Numbers in names are those of the source.

The target in test [1] is T1, Fhm, hTL1A(Q167R), soluble, E. coli-expressed, residues 72-251 of SEQ ID NO:246 (human, UniProt O95150 72-251).
T1 construct: with or without N-terminal Met
T1 chain: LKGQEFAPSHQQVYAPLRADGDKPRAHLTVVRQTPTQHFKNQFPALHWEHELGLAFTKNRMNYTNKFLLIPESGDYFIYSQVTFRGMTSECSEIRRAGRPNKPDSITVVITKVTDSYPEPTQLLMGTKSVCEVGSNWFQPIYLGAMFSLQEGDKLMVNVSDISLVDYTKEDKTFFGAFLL
Briefly: SPR 25C, mAb captured. The gist of the method:
(§1)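 Biacore T100 SPR with captured mAb and soluble TL1A/Fhm analyte; ka and kd fitted to a 1:1 model assuming monomeric TL1A. KD = kd/ka; t1/2 (min) = ln2/(60·kd).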

In test [2] the target is T2, cynomolgus monkey TL1A, soluble, E. coli-expressed, residues 72-251 of SEQ ID NO:248 (cynomolgus monkey (Macaca fascicularis), UniProt O95150 72-251 (human entry)).
T2 construct: with or without N-terminal Met; also called MfTL1A (E. Coli)
T2 chain: T1 chain with F39L, I78V, R96Q
In words: SPR 25C, mAb captured. The gist of the method: as §1

Test [3] concerns the target T3, human TL1A, soluble, CHO-expressed, residues 72-251 of SEQ ID NO:244 with N-terminal His6-tag (human, UniProt O95150 72-251).
T3 construct: also called hTL1A; hTL1A (CHO)
T3 sequence: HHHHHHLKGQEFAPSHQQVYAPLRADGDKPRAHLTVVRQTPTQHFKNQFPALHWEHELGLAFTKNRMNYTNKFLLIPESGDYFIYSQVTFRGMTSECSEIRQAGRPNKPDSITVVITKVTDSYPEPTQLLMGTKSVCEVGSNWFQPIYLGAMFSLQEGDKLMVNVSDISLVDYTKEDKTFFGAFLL
In words: SPR 37C, mAb captured. The gist of the method:
as §1

Test [4] concerns the target T4, cynomolgus monkey TL1A, soluble, CHO-expressed, residues 72-251 of SEQ ID NO:248 with N-terminal His6-tag (cynomolgus monkey (Macaca fascicularis), UniProt O95150 72-251 (human entry)).
T4 construct: also called MfTL1A; MfTL1A (CHO)
T4 chain: T3 sequence with F45L, I84V
In words: SPR 37C, mAb captured. The gist of the method: as §1

For test [5], the target named is T2, cynomolgus monkey TL1A, soluble, E. …. Briefly: SPR 37C, mAb captured. The method in brief:
as §1

Test [6] deals with T5, mouse TL1A, soluble, E. coli-expressed, residues 76-252 of SEQ ID NO:250 (mouse, UniProt Q5UBV8 76-252).
T5 construct: with or without N-terminal Met; also called mTL1A (E. Coli)
T5 sequence: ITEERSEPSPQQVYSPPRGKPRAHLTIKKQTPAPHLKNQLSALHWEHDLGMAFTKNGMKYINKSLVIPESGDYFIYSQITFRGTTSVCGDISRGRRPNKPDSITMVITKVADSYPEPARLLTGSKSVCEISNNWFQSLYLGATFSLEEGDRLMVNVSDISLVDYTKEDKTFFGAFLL
Briefly: SPR 25C, steady state. The method in brief:
as §1

Test [7] concerns the target T6, Fhm, hTL1A(Q167R), soluble, CHO-expressed, residues 72-251 of SEQ ID NO:246 (human, UniProt O95150 72-251).
T6 chain: T3 sequence with Q102R
In words: cell-based or functional assay.

Test [8] has as its target T7, rat TL1A, soluble, CHO-expressed, residues 76-252 of SEQ ID NO:258 with N-terminal His6-tag (rat, UniProt Q8K3Y7 76-252).
T7 sequence: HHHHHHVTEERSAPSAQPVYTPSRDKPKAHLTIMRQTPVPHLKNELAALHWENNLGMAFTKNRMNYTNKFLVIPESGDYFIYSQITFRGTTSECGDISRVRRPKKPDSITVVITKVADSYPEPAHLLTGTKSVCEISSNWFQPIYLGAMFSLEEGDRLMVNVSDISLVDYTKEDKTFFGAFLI
Briefly: cell-based or functional assay.

B1: H4H1725P (antibody, human IgG4 S228P, V domains shown)
VH: QVQLVQSGAEVKKPGASVKVSCKASGYTFTGYYMHWVRQAPGQGLEWMGWIKPKSGGTNYVQKFQGRVTMTRDTSINTAYMELNNLKSDDTAVYYCATGGSQDASDFWGQGTMVTVSS
VL: DIQMTQSPSSVSASVGGRVTITCRASQDISIWLAWYQQKPGKAPNLLIYAASSLQSGVPSRFSGSGSGTDFTLTISSLQPEDFATYYCQQADSFPLTFGGGTKVEIK
Regarding B1, the Kd amounted to 28.9 pM in test [1]; 63.7 pM in test [2]; 23.9 pM in test [3]; 17.7 pM in test [4]; 62.2 pM in test [5]; 62000 pM in test [6]. The t1/2 in test [1] was 7.45 h; in test [2], 4.87 h; in test [3], 12.6 h; in test [4], 14.8 h; in test [5], 2.9 h. The “IC50, NFkB-luciferase reporter” value in test [7] is 70 pM; in test [8], 63400 pM.

B2: H4H1817N (antibody, human IgG4 S228P, V domains shown)
VH: QVQLQQWGAGLLKPSETLSLTCAVSGGSFSDYFWTWIRQPPGKGLEWIGEISHSGRTNYNPSLKSRVTISVDTSMSQFSLKMTSVTAADSAVYYCARDYPNWVFDYWGQGTLVTVSS
VL: EIELTQSPGTLSLSPGEGATLSCRASQSVFNSYLAWYQQKPGQAPRLLIYGASRRATGIPDRFSGSGSGTDFTLTISRLEPGDFAVYFCQQYGNSPLTFGGGTKVEIK
notes: human IgG4(S108P) form of H2M1817N
Regarding B2, the Kd in test [3] amounted to 27.8 pM; in test [4], 25.6 pM. Further, the t1/2 in test [3] turned out to be 18.3 h; in test [4], 19.2 h. In addition, the figures for the “IC50, NFkB-luciferase reporter” value in test [7] and in test [8] were 120 pM and 23900 pM, respectively.

B3: H4H1742P (antibody, human IgG4 S228P, V domains shown)
VH: EVQLVESGGGLVQPGGSLRLSCAASGFTFSNYVMNWVRQAPGKGLEWVSVISGSGGSTHYADSVKGRFTISRDNSKDALYLQMNSLRAEDTAVYYCAKGPLEAYYYYNGMDVWGQGTTVTVSS
VL: DIQLTQSPSFLSASVGDRVTITCWASQAISSYLAWYQHKPGRAPKLLIYSTSTLQSGVPSRFSGSGSGTEFTLTISSLQPEDFATYYCQQLNSYPTFGQGTKLEIK
Take B3: the values for the Kd in test [1], in test [2] and in test [5] were 437 pM, 593 pM and 945 pM, respectively. Moreover, the t1/2 in test [1] turned out to be 2.15 h; in test [2], 1.62 h; in test [5] it was 0.583 h. Moreover, the binding result in test [6] is “no binding (tested: up to 100 nM)”. Moreover, the “IC50, NFkB-luciferase reporter” value stood at 530 pM in test [7] and 6120 pM in test [8].

B4: H4H1804N (antibody, human IgG4 S228P, V domains shown)
VH: QVQLHQWGAGLLKPSETLSLTCAVSGVSFSDYHWAWIRQSPGKGLEWIGDINHRGRTNYNPSLKSRVTISLDTSGNPFSLKLTSVTAADTAVYYCARDFPNWVFDSWGQGILVTVSS
VL: EIVLSQSPGTLSLSPGERATLSCRASQSVSSSFLAWYQQYPGQAPRLLIYGASRRATGIPDRFRGSGSGTDFTLTISRLEPEDFAVYYCQQYGSSPLTFGGGTKVENK
notes: human IgG4(S108P) form of H2M1804N
Consider B4, for which the Kd in test [3] stood at 45.8 pM; in test [4], 78 pM. For the same molecule, the t1/2 in test [3] is 4.77 h; in test [4], 2.78 h. Besides, the “IC50, NFkB-luciferase reporter” value in test [7] was determined as 100 pM; in test [8], 3640 pM.
